Conditions: Aspergillus oryzae (strain ATCC 42149 / RIB 40), pH 7, Fluorescence, MOPS 30 mM, reversible: yes, whole UniProt chain shown

B1: Guanyl-specific ribonuclease T1 wild type, P00651 (protein)
chain: MMYSKLLTLTTLLLPTALALPSLVERACDYTCGSNCYSSSDVSTAQAAGYQLHEDGETVGSNSYPHKYNNYEGFDFSVSSPYYEWPILSSGDVYSGGSPGADRVVFNENNQLAGVITHTGASGNNFVECT
- denaturant m value (25 °C, Urea): 1.21 kcal/mol/M
- denaturant midpoint (higher = more stable) (25 °C, Urea): 5.3 M
- Tm (Thermal): 50.9 °C
- unfolding enthalpy (van 't Hoff) (Thermal): 110 kcal/mol

— FireProtDB (doi:10.1021/bi00118a013)
